Data taken from the DeepSol protein solubility set.

Assay: soluble on expression in E. coli; label from the status in PepcDB or PDB records

Sequence | soluble on expression in E. coli
MGSDKIHHHHHHAVTTGNTPVTAEFAGGTLPDGNGVPNTVDPDPTKPNSNFDLLFIPREYDFGKLSISDDLTKPIPNKTDEGRAGNVESVGVGDIRGSKEGWHVTAQSTGMKLGEESLEGSITTGAMFLYPLIYNEETKTYDYQSADLADPVTKPETVDTTAFSIALGGDAVLLANATAGKGQGLWQFSFRPYLNITTPAYNIKAGAYTGNITWNLVAGPSI | not soluble
MGSDKIHHHHHHCKDDDTLLRGSGITEQSWSTNQTYFASAEQTLTFTFTTLSSWTAQNSSTALLSLDNTAGNSGENTIKVTVHKSSQEQGTITIKVNGYSSASNIKIQLSDDDVQGYEINYSVDQYLREKYLWNDDYKLLTPNFRQAYDEFLRNTLLSMTTNTLDKKRNSNGTYSLFSFIQKLDPDLQTSRSAKEKKTLEYNYGFVNFIAVGNRNNSNYGLVIQGVHKGSSADKEGLKRGMEITEIDNQRITTTNVQACYSKLIKPSSPTSIKVKDKDGKVYTINSGPIYANPIIHHQVNEKIGYLVYSAFESGFDQELFDVFKEFKSQNITELILDLRYNGGGDVTSANLISSCIAGDLCIDKTFASYRYNDERMKVLGNQRPIQKFAYSQYDNLSTSLSAGGLNLRKIYCLVTDDSASASELVINALRGIDIEVILIGTTTHGKNVGMEGVELTAGTDKYLLFPITFQAYNAKGFGDFENGFTPDYEINENKPNGEYFEGYGDFGAESDPLYAKAISLISGNEVTTPTRAVNQAKEQMLVIATPRLNRIGMIK | not soluble
MGSDKIHHHHHHCKPAARSVITESSLIFTSIHSSYVISTYYKRCVVLSQRKEAVQNMNVYQLKEELIEYAKSIGVDKIGFTTADTFDSLKDRLILQESLGYLSGFEEPDIEKRVTPKLLLPKAKSIVAIALAYPSRMKDAPRSTRTERRGIFCRASWGKDYHDVLREKLDLLEDFLKSKHEDIRTKSMVDTGELSDRAVAERAGIGFSAKNCMITTPEYGSYVYLAEMITNIPFEPDVPIEDMCGSCTKCLDACPTGALVNPGQLNAQRCISFLTQTKGFLPDEFRTKIGNRLYGCDTCQTVCPLNKGKDFHLHPEMEPDPEIAKPLLKPLLAISNREFKEKFGHVSGSWRGKKPIQRNAILALAHFKDASALPELTELMHKDPRPVIRGTAAWAIGKIGDPAYAEELEKALEKEKDEEAKLEIEKGIELLKASGMTKQGLS | not soluble
MGSDKIHHHHHHCSDDDSVNEWDMSYVSLLPADYLRPTPSFTLKHVEEEGIEGSVEFQFMATTQKAVTQDINVHYSVTCDGIDANKINLSAKNLLIKAGSTASEPITLSITDWKYLENTKEALEYTLKIKIADIESTSAEVTNAAYYQEIVLKISKTAEKKKESVLLTNVKDWIFTFMTGVENSASNSVAGTGTNDVATNGVPFWLTVDFKEVKNVTGVQTTHWGAGYAPSKVEIFSSENGDDWVSIGQWDTKGRTQTITFDERVKTRYLKYQMITVPSRVDITRFYIYAW | not soluble
MGSDKIHHHHHHDGKFTLGAGVGVVEHPYKQYDADVYPVPVISYESENFWFHGLGGGYYLWNDTNDKLSITAYWSPMYFKPGDSDSEQMRRLDKRKSTVMAGLSYVHNTPYGFLRTTIAGDTLDNSNGINWDLAWLYRYTNGNLTLTPGIGVEWNSDNQNEYYYGVSRHESRRSGMRSYDPDSSWNPYLELSANYRFLGDWSVYGVARYTRLSDEITDSPMVDKSWSGLISTGITYTF | not soluble
MGSDKIHHHHHHDGMGLSQVYLTSMLEGRPLSFMKTPYIGLVKTHSANSWVTDSAAAGTALASGFKTNNGMINILPDGTVVPTIFEVAKTYGVRTGIVVTCRVTHATPAAFYAHVKSRDEENEIARQLVENETVDVVMGGGWANFLPKDLGGKRDDNLNLIELAKEKGYIYVKTREELSKISADSDKILALFAPSHLDPASSRKEQPMLYEMVEKALEILSKDDEPFFLMVEGSQIDWEAHDNDIYGVWKEVVEFDKAVQVALDFALKRGDTLVIVTADHETGGLGLSSGDYRVDVDKIRNFKKTTDWIMANYSPKDREKFKKAIEEYFGLTLSDEDLNRISMSKNPKIELGRILGEKVSVGWTTTTHSGTPVPIFAFGPGAENFTGFLDNTEIPRIIMKLTGYSLQYPLLKEPVTK | not soluble
MGSDKIHHHHHHDNDWVDQSRNPDVIAPDAYASFSINIPHASKTRAVSTDPGIAAENTVKSLHVFIYDAESPNTPTVAEFTVAGGTLTQKPAGSSTWMTSQPISTKKTDKYIFAGVNLNAEIVNYITSNGLGAFSYKDFTQEITKLADQTNGFVMFNSAYPTLTPAADLYEKKSEAENNHITISVNRVTAKAAVFQSQSFVVNGGGTMTDLKFGWRNLNKKFYFIQDNRDALIKDYNWANYTAEDFTRGTDAINVYASADVPTSFSYATENAFQYISGTSNVDAATFISVSGVFTPTNIISAKKNPPTVAADFEIIVNPKPVDKTFFVVRTADGVANYFIDGPTAEKFAELCAANTPQMPSINGIYLLSENTYSNGLCYYHIFVNGDAVTPQAPYNIYRNQYFKININSIQAPGNPSDNFDRGEPIKPNSWIGVDIQIIPWEVIEEDHDL | not soluble
MGSDKIHHHHHHDWLDLNTTSSVETGQAIVTLDDAQIALNGIYRLASGHSYYGDNYWYYGDCRAADVQARITKGDGKRVSPYYEYNVLASDNLNIVLPWNTVYKVIRQTNNLIQKIESGSIQSSDTKELNRIKSEALVMRGLSLFNLTRLFGMPYTNDKGASLGVPIETSPSDPTHKPSRSTVAQCYEQVVSDMSNALSGLRQETSNGYINYWAAQALLSRVYLNMGEYQKAYDAATDVIKNNGGRYQLYSYEEYPNVWGQDFQSESLFELYITLSEPSGGTGGEGAPMVYANEATVDWNNLILSEDFLNLLNEDPKDVRHCLTKESVIENNTGLPAAAMHEKVYLAKFPGKTGDDPKTNNICIIRLSEVYLNAAEAGLKKGTDIEEAQGYLNDIISRRTTDTSQQVSTETFTLDRILKERRKELVGEGEVFYDYLRNGLAIERKGSWHLETLKASNAQKIEATDLRIALPIPQSEIDANPNIQQNPR | not soluble
MGSDKIHHHHHHEEMEKGFDPKRYARELWFKLQDMMNEGLGYDAVEVLNTLDENPELAHQKFAKVVGVSNYRYYIIQGVGEIVEIKDDGILVKVRENRKVPDLFLSNHIFGNGIVNATGIAKMEDFDRIIDFNLTATELNKIVKEEVVNSFLKQLSKGAGSVGSLVRFIAVFTLLKDEEIKYPIEAIPLYLEIQGGF | soluble
MGSDKIHHHHHHETQPESAAFTAPSTDNPIRINFNENPLGMSPKAQAAARDAVVKANRYAKNEILMLGNKLAAHHQVEAPSILLTAGSSEGIRAAIEAYASLEAQLVIPELTYGDGEHFAKIAGMKVTKVKMLDNWAFDIEGLKAAVAAYSGPSIVYLVNPNNPTGTITPADVIEPWIASKPANTMFIVDEAYAEFVNDPRFRSISPMITQGAENIILLKTFSKIHAMAGMRVGYAVAHPTVIALMGRYVAGEKINFSGVDAALASMNDSAFITYSKKSNDVSRQILLKALEDLKLPYLPSEGNFVFHQLVVPLKDYQTHMADAGVLIGRAFPPADNWCRISLGTPQEMQWVADTMREFRKKSWI | not soluble
MGSDKIHHHHHHGADVETPSVSISVSPENPKVGEEVTVTINTDAQYLTLFTGDEGKNFERSRIKAIMEHDWDSFYEECYRVSYAKNGEKTLFYKYFKDYQSIEDVKKDFEFFGAIDNIQLVPYKKGDFPEALMEMSYIGTNQLKFTVTDRRIPSGIRMKPNIHIFGGLANQPGNTIIESRFVACDADRAIRKYSNDAWVAAYFGLHTEQLEDFQGYSAGYKYYTFQDERSYGAFQTNDPLSRRPTEGFYKLGDMYNRDTYLQPFLDHGEKIILRQVDMYVNGRSTFVAADDSPYKYDLDGDGVLESYECELDPATGLPVHEADYTKYKGFQGDVYLSFIEMGTDEYEPWNTGVSLGSVYTTGGIQKTYKYIYTGAGDFTITAVATNVGDKDYKGIDYSEERSNSLDDYSHKRALSSVKVSVKP | not soluble
MGSDKIHHHHHHGCKEKDMSMKMNEPHNIKGVISYKRSFGDLNDTHLSVAKKIGIRPLASRSEAEGLGGKLVQIKPCERYAMDSLTHSIPFLIPQASALLDTIGANFLDSLSCKGLNPNQIIVTSVLRTADDVKRLRRRNGNASANSAHAFGTTFDVSYRRFCKVEDPDGRPMQDVSPDTLKLVLAEVLRDLRKSDKCYIKYELKQGCFHITAR | not soluble
MGSDKIHHHHHHKAVPLASINGEWNIIEVNGSKVTPGESRTLPFITFDTATGRVSGNSGCNRMMGSFDVNAKPGSMELKGMASTRMMCPDMTTERNVLGALAQVKGYKKAGKDKMFLCNESNRPVVVLEKKEADVKLSVLNGEWKIKEVNGEAITSGMEKQPFIAFDVKKKTLHGNAGCNLINGGFETSTTNAKSISFPGVASTMMACPDMEVEGKILKAMNEVKSFDKLSGGGIGLYDANNALVIVLEK | not soluble
